Columns and labels:
Cul1-Rbx1 (Homo sapiens) = Cul1-Rbx1 (Homo sapiens) (UniProt Q13616); conditions: cited from earlier work
^3xFLAGpIκBα = ^3xFLAGpIκBα (UniProt P25963); test: co-IP
Sequence of ^3xFLAGpIκBα (P25963 whole entry): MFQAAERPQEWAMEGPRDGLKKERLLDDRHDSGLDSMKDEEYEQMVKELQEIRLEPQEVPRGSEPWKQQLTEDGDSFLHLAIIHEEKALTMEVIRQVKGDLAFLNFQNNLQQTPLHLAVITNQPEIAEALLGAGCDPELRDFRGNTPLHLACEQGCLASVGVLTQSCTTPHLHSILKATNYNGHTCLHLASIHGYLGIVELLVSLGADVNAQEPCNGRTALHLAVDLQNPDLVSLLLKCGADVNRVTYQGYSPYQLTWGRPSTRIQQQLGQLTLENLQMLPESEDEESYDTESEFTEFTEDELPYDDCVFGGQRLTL

Sequence of Dcn1 (Q96GG9 whole entry): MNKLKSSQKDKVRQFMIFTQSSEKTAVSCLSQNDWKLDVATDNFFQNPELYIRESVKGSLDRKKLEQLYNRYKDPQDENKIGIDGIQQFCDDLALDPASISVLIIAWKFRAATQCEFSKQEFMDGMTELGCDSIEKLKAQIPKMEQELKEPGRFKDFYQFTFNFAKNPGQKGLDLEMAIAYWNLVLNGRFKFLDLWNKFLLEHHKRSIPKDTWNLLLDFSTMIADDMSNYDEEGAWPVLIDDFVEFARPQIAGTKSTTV

## Dcn1 (from UniProt Q96GG9)
Cul1-Rbx1 (Homo sapiens)
  Kd: 1800 nM

## β-TrCP (from UniProt Q9Y297 1-605) (natural protein)
^3xFLAGpIκBα
  koff: 3.3e-05 s⁻¹
